Holding throughout (test): flow cytometry on cells
Common to all, as to conditions: one partner purified
A general note: In flow cytometry, cells or beads pass a laser one at a time.

Experiment [1] concerns the target SARS-CoV-2 Wuhan-Hu-1 RBD, yeast-displayed (SARS-CoV-2, UniProt P0DTC2 330-530).
Experiment [2] has as its target LYRa11 RBD, yeast-displayed (bat sarbecovirus LYRa11).
Experiment [3] addresses Rs4048 RBD, yeast-displayed (bat sarbecovirus Rs4048).
Experiment [4] has as its target Rs7327 RBD, yeast-displayed (bat sarbecovirus Rs7327).
The target of experiment [5] is RaTG13 RBD, yeast-displayed (bat sarbecovirus RaTG13).
For experiment [6], the target named is SARS-CoV-1 (Urbani) RBD, yeast-displayed (SARS-CoV-1 (Urbani)).
The target in experiment [7] is RsSHC014 RBD, yeast-displayed (bat sarbecovirus RsSHC014, UniProt U5WLK5 318-517).
Experiment [8] deals with Rs4231 RBD, yeast-displayed (bat sarbecovirus Rs4231).

These results are taken from article PMC9409550 (PLoS ONE, 2022).

B1: CDY14HL-Fc1 (Fc fusion)
chain: QSTIEEQAKTFLDMFNHKAEDLFYQSSLAAWNYNTNITEENVQNMNNAGDKWSAFLKEQSTFAQMYPLQEIQNPTVKLQLQALQQNGSSVLSEDKSKRLNTILNTMSTIYSTGKVCNPDNPQECLLLEPGLNEIMANSLDYNERLWAWESWRSEVGKQLRPLYEEYVVLKNEMARANHYEDYGDYWRGDYEVNGVDGYDYSRGQLIEDVEHTFEEIKPLYEHLHAYVRAKLMNAYPSYISPIGCLPAHLLGDMWGRFWTNLYSLTVPFGQKPNIDVTDAMVDQAWDAQRIFKEAEKFFVSVGLPNMTQGFWEYSMLTDPGNVQKAVCLPTAWDLGKGDFRILMCTKVTMDDFLTAHHEMGHIQYDMAYAAQPFLLRNGANEGFHEAVGEIMSLSAATPKHLKSIGLLSPDFQEDNETEINFLLKQALTIVGTLPFTYMLEKWRWMVFKGEIPKDQWMKKWWEMKREIVGVVEPVPHDETYCDPASLFHVSNDYSFIRYYTRTLYQFQFQEALCQAAKHEGPLHKCDISNSTEAGQKLFNMLRLGKSEPWTLALENVVGAKNMNVRPLLNYFEPLFTWLKDQNKNSFVGWSTDWSPYAD
As a reminder, the Kd is the concentration at which binding is half-saturated. For the molecule B1, the Kd in experiment [1] was determined as 0.14 nM; in experiment [2], 0.29 nM; in experiment [3], 0.31 nM; in experiment [4], 0.31 nM; in experiment [5] it was 1.4 nM; in experiment [6] it was 0.25 nM. The Kd in experiment [7] stood at 0.31 nM; in experiment [8] it was 0.3 nM.
